Results taken from paper PMC2897767, “Two Distinct Mechanisms for Actin Capping Protein Regulation—Steric and Allosteric Inhibition” (PLoS Biology, 2010).

Biological target: GST-V-1 (human) (UniProt P58546)
Experiment: SPR; GST-fusion protein (GST-V-1, GST-CA or GST-CD) immobilised on a CM5 chip via anti-GST antibodies (up to 200 RU), CP perfused at 20 µl/min; 20°C; 50 mM KCl, 1 mM MgCl2, 0.005% Tween-20, 10 mM imidazole pH 7.0; 1:1 fit, KD from the kinetic rate constants (steady state for several fast-dissociating mutants)

GST-V-1 (human), sequence (P58546 whole entry, the tested form may be a part): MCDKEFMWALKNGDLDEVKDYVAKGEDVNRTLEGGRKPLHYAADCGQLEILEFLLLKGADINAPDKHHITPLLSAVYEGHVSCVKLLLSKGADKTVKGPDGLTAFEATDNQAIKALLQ

fold reduction of the affinity against the wild type proteins: > 25 fold
Substance: CP with mutations of residues which form the “basic triad” (CP (α) Lys256, Arg260, Arg266)
